Laboratory results published in patent US20220213176A1 (SHANGHAITECH UNIVERSITY, published 2022).

Experiments:
[1] = molecular target: SARS-CoV-2 B.1.617.2 pseudovirus spike (SARS-CoV-2); assay: cell-based or functional assay
[2] = molecular target: SARS-CoV-2 K417N+E484K+N501Y+D614G mutant pseudovirus spike (spikeΔ19) (SARS-CoV-2, UniProt P0DTC2 14-1254); assay: cell-based or functional assay
[3] = molecular target: SARS-CoV-2 N501Y+D614G mutant pseudovirus spike (spikeΔ19) (SARS-CoV-2, UniProt P0DTC2 14-1254); assay: cell-based or functional assay
[4] = molecular target: wild-type SARS-CoV-2 pseudovirus spike (spikeΔ19) (SARS-CoV-2, UniProt P0DTC2 14-1254); assay: cell-based or functional assay
B.1.351 S-RBD [5] = molecular target: T1, B.1.351 S-RBD (SARS-CoV-2, UniProt P0DTC2 319-541); assay: BLI (Octet RED96), biotin B.1.351 S-RBD on SA sensor, 1:1 fit
T1 construct: also called spike RBD of B.1.351 (Beta Strain)

B.1.351 S-RBD [6] = molecular target: T1, B.1.351 S-RBD; assay: BLI (Octet RED96), biotinylated B.1.351 S-RBD on SA biosensor, 1:1 binding model

Binder	NT50 (B.1.617.2) (nM), pseudovirus neutralization [1] [nM]	NT50 (B.1.351) (nM), pseudovirus neutralization [2] [nM]	NT50, N501Y+D614G spike pseudovirus neutralization [3] [nM]	NT50, wild-type SARS-CoV-2 pseudovirus neutralization [4] [nM]	Kd (B.1.351 S-RBD [5]) [nM]	Kd (B.1.351 S-RBD [6]) [nM]
S-D4 (antibody, V domains shown, also called S-D4 dimer; S-D4 IgG4) VH: QVQLQESGGGVVQPGRSLRLSCEVSGFTFSDYGMHWVRQAPGKGLEWVAVIWSEGSTEYYADSVKGRFTISRDNSKDTLYLQMNSLRAEDTAVYYCARPGYPTSTDRSPAAAGARQYYYYGMDVWGQGTTVTVSS VL: NFMLTQPHSVSESPGKTVTISCTRSGGSGAANYVQWYQQRPGSSPTTLIYEDSRRPPGVPDRFSGSVDTSSNSASLTISGLQTEDEADYYCQSYDSSNHVVFGGGTKLTVLG	0.24	0.66	0.042	0.48		
S-E6 (antibody, V domains shown, also called S-E6 dimer; dimer S-E6) VH: QVTLRESGPGLVKPSETLSLTCAVSGGSLSSVNYYWSWIRQHPGKGLEWIGYIYYSGSTNYNPSLKSRVTMSLDTSKNQFSLKLSSVTAADTAVYYCATPGAIMGALHIWGQGTLVTVSS VL: QAVLTQPSSASSTPGQRVIISCSGSSSNIGSNTVSWYQQVPGAAPKLLIYFDYRRPSGVPDRFSGTRSGTSASLGISGLQSEDEADYYCAAWDDSLSAWVFGRGTKLTVLG	0.065	0.32	0.021	0.025		
S-B8 trimer (other) heavy: QVQLVQSGGGLIQPGGSLRLSCAASGFTVSLSHMNWVRQAPGKGLEWVSITYGDGNSDYADSVKGRFTISRDNSKNTLYLQMNSLRAEDTAVYYCAREYYYGMDVWGQGTTVTVSSASTKGPSVFPLAPSSKSTSGGTAALGCLVKDYFPEPVTVSWNSGALTSGVHTFPAVLQSSGLYSLSSVVTVPSSSLGTQTYICNVNHKPSNTKVDKKVEPPKSGGGGSGGGGSGGGGSPGSGYIPEAPRDGQAYVRKDGEWVLLSTFLGHHHHHH light: not shown	0.15	0.35				
S-E6 trimer (T4F) (other, also called trimer S-E6; trimeric S-E6) heavy: QVTLRESGPGLVKPSETLSLTCAVSGGSLSSVNYYWSWIRQHPGKGLEWIGYIYYSGSTNYNPSLKSRVTMSLDTSKNQFSLKLSSVTAADTAVYYCATPGAIMGALHIWGQGTLVTVSSASTKGPSVFPLAPSSKSTSGGTAALGCLVKDYFPEPVTVSWNSGALTSGVHTFPAVLQSSGLYSLSSVVTVPSSSLGTQTYICNVNHKPSNTKVDKKVEPPKSGGGGSGGGGSGGGGSPGSGYIPEAPRDGQAYVRKDGEWVLLSTFLGHHHHHH light: QAVLTQPSSASSTPGQRVIISCSGSSSNIGSNTVSWYQQVPGAAPKLLIYFDYRRPSGVPDRFSGTRSGTSASLGISGLQSEDEADYYCAAWDDSLSAWVFGRGTKLTVLGGLGGLVDYKGQPKAAPSVTLFPPSSEELQANKATLVCLISDFYPGAVTVAWKADSSPVKAGVETTTPSKQSNNKYAASSYLSLTPEQWKSHRSYSCQVTHEGSTVEKTVAPTECS	0.007				0.58	0.576
S-B8 (antibody, V domains shown, also called S-B8 dimer) VH: QVQLVQSGGGLIQPGGSLRLSCAASGFTVSLSHMNWVRQAPGKGLEWVSITYGDGNSDYADSVKGRFTISRDNSKNTLYLQMNSLRAEDTAVYYCAREYYYGMDVWGQGTTVTVSS VL: not shown	0.37	1.2	0.53			
